Reference: US20190241669A1 (published 2019)
Substitutions are numbered along the chain they refer to.

Columns and labels:
[1] = biological target: Human BCMA (human) (UniProt Q02223); test: SPR, IgG on chip, huBCMA analyte
[2] = biological target: T1, cynomolgus monkey BCMA (cynomolgus monkey, UniProt A0A2K5UD97 1-53); test: SPR, IgG on chip, cyBCMA analyte
T1 construct: Soluble analyte in SPR; construct not described; also called cyBCMA; Cyno BCMA
T1 sequence (A0A2K5UD97 entry or part of it): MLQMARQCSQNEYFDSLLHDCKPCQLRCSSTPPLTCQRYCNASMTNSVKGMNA

B1: COMBO_Rd4_0.6nM_C30 (antibody, V domains shown)
VH: EVQLLESGGGLVQPGGSLRLSCAASGFTFSSYPMSWVRQAPGKGLEWVSAIGGSGGSTYYADSVKGRFTISRDNSKNTLYLQMNSLRAEDTAVYYCARYWPMDSWGQGTLVTVSS
VL: EIVLTQSPGTLSLSPGERATLSCRASQSVSYMYLAWYQQKPGQAPRLLIYDASIRATGIPDRFSGSGSGTDFTLTISRLEPEDFAVYYCQQYKSWPLTFGQGTKVEIK
notes: IgG
[1]
  Kd: 0.065 nM
  koff: 0.000282 s⁻¹
  kon: 4.35e+06 M⁻¹ s⁻¹
[2]
  Kd: 0.481 nM
  koff: 0.000808 s⁻¹
  kon: 1.68e+06 M⁻¹ s⁻¹

B2: A02_Rd4_0.6nM_C18 (antibody, V domains shown)
VH: B1 VH with P33A, S35N, I51V, G52L, G53D, D103S, S104L
VL: B1 VL with Y31E, M32L, I49M, K93F, S94G
notes: IgG
[1]
  Kd: 0.048 nM
  koff: 0.000229 s⁻¹
  kon: 4.73e+06 M⁻¹ s⁻¹
[2]
  Kd: 0.197 nM
  koff: 0.000639 s⁻¹
  kon: 3.24e+06 M⁻¹ s⁻¹

B3: COMBO_Rd4_6nM_C12 (antibody, V domains shown)
VH: EVQLLESGGGLVQPGGSLRLSCAASGFTFSSYPMSWVRQAPGKGLEWVSAALGSGGSTYYADSVKGRFTISRDNSKNTLYLQMNSLRAEDTAVYYCARYWPMDSWGQGTLVTVS
VL: B1 VL with Y31A, M32S, I49M, K93M
notes: IgG
[1]
  Kd: 0.02 nM
  koff: 0.00027 s⁻¹
  kon: 1.38e+07 M⁻¹ s⁻¹
[2]
  Kd: 0.148 nM
  koff: 0.000486 s⁻¹
  kon: 3.29e+06 M⁻¹ s⁻¹

B4: COMBO_Rd4_0.6nM_C22 (antibody, V domains shown)
VH: B1 VH with P33A, S35N, G52S, G53D, T58R, Y59W, A97T, S104I
VL: B1 VL with Q27V, S28R, Y31S, M32T, I49M, K93M, S94K
notes: IgG; also called COM22
[1]
  Kd: 0.036 nM
  koff: 7.15e-05 s⁻¹
  kon: 1.97e+06 M⁻¹ s⁻¹
[2]
  Kd: 0.05 nM
  koff: 6.66e-05 s⁻¹
  kon: 1.34e+06 M⁻¹ s⁻¹

B5: COMBO_Rd4_6nM_C22 (antibody, V domains shown)
VH: B1 VH with P33A, S35N, I51C, G52L, G53D
VL: B1 VL with Y31S, M32S, I49M, K93Q, S94G
notes: IgG
[1]
  Kd: 0.256 nM
  koff: 0.000775 s⁻¹
  kon: 3.03e+06 M⁻¹ s⁻¹
[2]
  Kd: 0.972 nM
  koff: 0.00165 s⁻¹
  kon: 1.7e+06 M⁻¹ s⁻¹

B6: COMBO_Rd4_6nM_C09 (antibody, V domains shown)
VH: B1 VH with G52F, G53A
VL: B1 VL with Y31A, M32Q, I49M, K93Q, S94A
notes: IgG
[1]
  Kd: 0.016 nM
  koff: 0.000143 s⁻¹
  kon: 8.85e+06 M⁻¹ s⁻¹
[2]
  Kd: 0.134 nM
  koff: 0.000318 s⁻¹
  kon: 2.37e+06 M⁻¹ s⁻¹

B7: COMBO_Rd4_6nM_C21 (antibody, V domains shown)
VH: B1 VH with T58L, Y59P
VL: B1 VL with Y31A, M32A, I49M, K93M, S94C
notes: IgG
[1]
  Kd: 0.006 nM
  koff: 7.34e-05 s⁻¹
  kon: 1.17e+07 M⁻¹ s⁻¹
[2]
  Kd: 0.078 nM
  koff: 0.000248 s⁻¹
  kon: 3.17e+06 M⁻¹ s⁻¹

B8: COMBO_Rd4_6nM_C25 (antibody, V domains shown)
VH: B1 VH with S104P
VL: B1 VL with Y31S, M32P, I49M, K93Q
notes: IgG
[1]
  Kd: 0.014 nM
  koff: 0.000113 s⁻¹
  kon: 7.98e+06 M⁻¹ s⁻¹
[2]
  Kd: 0.079 nM
  koff: 0.000226 s⁻¹
  kon: 2.85e+06 M⁻¹ s⁻¹

B9: COMBO_Rd4_6nM_C02 (antibody, V domains shown)
VH: B1 VH with P33A, S35N, G52S, G53D, S57F, T58V
VL: B1 VL with Y31S, M32S, I49M, K93E, S94F
notes: IgG
[1]
  Kd: 0.422 nM
  koff: 0.000443 s⁻¹
  kon: 1.05e+06 M⁻¹ s⁻¹
[2]
  Kd: 1.71 nM
  koff: 0.00136 s⁻¹
  kon: 795000 M⁻¹ s⁻¹

B10: COMBO_Rd4_6nM_C07 (antibody, V domains shown)
VH: B1 VH with T58L, Y59P, D103A, S104D
VL: B1 VL with S28P, V29I, Y31S, M32S, I49M, K93Q, S94G
notes: IgG
[1]
  Kd: 0.035 nM
  koff: 0.000371 s⁻¹
  kon: 1.05e+07 M⁻¹ s⁻¹
[2]
  Kd: 0.237 nM
  koff: 0.000934 s⁻¹
  kon: 3.94e+06 M⁻¹ s⁻¹

B11: P5A2_VHVL (antibody, V domains shown)
VH: B1 VH with P33A, S35N, G52S, G53D, S104I
VL: B1 VL with Y31S, M32S, I49M, K93G
notes: IgG
[1]
  Kd: 5.57 nM
  koff: 0.0387 s⁻¹
  kon: 6.96e+06 M⁻¹ s⁻¹
[2]
  Kd: 10.2 nM
  koff: 0.0164 s⁻¹
  kon: 1.61e+06 M⁻¹ s⁻¹

B12: P5C1_VHVL (antibody, V domains shown)
VH: B1 VH
VL: B1 VL with Y31S, M32T, I54S, T57P, K93S, S94T, W95S
notes: IgG; also called PC1
[1]
  Kd: 5.99 nM
  koff: 0.0692 s⁻¹
  kon: 1.16e+07 M⁻¹ s⁻¹
[2]
  Kd: 15.2 nM
  koff: 0.0538 s⁻¹
  kon: 3.53e+06 M⁻¹ s⁻¹

B13: COMBO_Rd4_6nM_C11 (antibody, V domains shown)
VH: B1 VH with T58L, Y59G
VL: B1 VL with Y31P, M32L, I49M, S94A
notes: IgG
[1]
  Kd: 0.018 nM
  koff: 0.000124 s⁻¹
  kon: 6.74e+06 M⁻¹ s⁻¹
[2]
  Kd: 0.156 nM
  koff: 0.000412 s⁻¹
  kon: 2.64e+06 M⁻¹ s⁻¹
